Drawing on article PMC9076861, this text covers EC50 of IR Y1150 phosphorylation in Rat-1/hIR cells, various concentrations of insulin for 5 min, western blot, four-parameter logistic fit for one substance.

The experiment has as its target human insulin receptor overexpressed on Rat-1 cells (Rat-1/hIR) (human) (UniProt P06213).

Substance insulin from bovine pancreas (ligand) had an EC50 of IR Y1150 phosphorylation in Rat-1/hIR cells, various concentrations of insulin for 5 min, western blot, four-parameter logistic fit of 86.4 nM.
